Kd data for one molecule are collected here from article PMC10825162 (Nature Communications, 2024).

The experiment deals with SARS-CoV-2 BA.1 RBD protein (SARS-CoV-2 Omicron BA.1, strain). Nature of the experiment: SPR. The note with it: both partners purified.

B1: BA7208 (antibody, V domains shown)
VH: EVQLVQSGAEVKKPGESLKISCKGSGYSFTSYYWIGWVRQMPGKGLEWMGIVYPDDSDTRYSPSFQGQVTISADKSISTAYLQWSSLKASDTAMYYCVRHPGGGDWYFDLWGRGTLVTVSS
VL: DIQMTQSPSTLSASVGDRVTITCRASQSISSWLAWYQQKPGKAPKLLIYKASSLESGVPSRFSGSGSGTEFTLTITSLQPDDFATYYCQQYDSFSWTFGQGTKLEIK
Take B1: the affinity, expressed as Kd, was 1.81 nM.
